Measurements taken from publication PMC7781310.

Columns and labels:
[1] = biological target: Wild type sACE2_(2)-IgG1 (human) (UniProt Q9BYF1); experiment: BLI
[2] = biological target: sACE2_(2).v2.4-IgG1 (human) (UniProt Q9BYF1); experiment: BLI

| Substance | Kd [1] | koff [1] | Kd [2] | koff [2] |
| --- | --- | --- | --- | --- |
| LYRa11 RBD-8h (domain or fragment) | 91 nM | 0.079 s⁻¹ | 1.8 nM | 0.0025 s⁻¹ |
| Rs4084 RBD-8h (domain or fragment) | 85 nM | 0.025 s⁻¹ | 3.1 nM | 0.0015 s⁻¹ |
| Rs4231 RBD-8h (domain or fragment) | 69 nM | 0.022 s⁻¹ | 3.5 nM | 0.0016 s⁻¹ |
| Rs7327 RBD-8h (domain or fragment) | 63 nM | 0.04 s⁻¹ | 1.9 nM | 0.0018 s⁻¹ |
| RsSHC014 RBD-8h (domain or fragment) | – | – | – | 0.002 s⁻¹ |
